Experimental data from the supplement of paper PMC11316812.
± gives the standard deviation of the averaged measurements.

Tests used:
[1] = system: MCF7; test: percentage of EdU-negative (G0-arrested) nuclei per well, 72 h; higher = more G0 arrest; conditions: reference: sequence is the full UniProt precursor, the tested protein was the secreted form or ectodomain
[2] = system: hTERT-HMEC; test: as above; conditions: reference: sequence is the full UniProt precursor, the tested protein was the secreted form or ectodomain
[3] = protein concentration 0.03125 µM
[4] = protein concentration 0.3125 µM
[5] = protein concentration 0.0185 µM
[6] = protein concentration 0.01925 µM
[7] = protein concentration 0.1925 µM
[8] = protein concentration 0.0225 µM
[9] = protein concentration 0.0115 µM
[10] = protein concentration 0.0357143 µM
[11] = protein concentration 0.357143 µM
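Note: secreted proteins added to cultured cells, EdU pulse at the end, nuclei found by Hoechst imaging, EdU status from nuclear versus surrounding ring intensity ratio, PBS as neutral control.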

With “MARARGSPCPPLPPGRMSWPHGALLFLWLFSPPLGAGGGGVAVTSAAGGGSPPATSCPVACSCSNQASRVICTRRDLAEVPASIPVNTRYLNLQENGIQVIRTDTFKHLRHLEILQLSKNLVRKIEVGAFNGLPSLNTLELFDNRLTTVPTQAFEYLSKLRELWLRNNPIESIPSYAFNRVPSLRRLDLGELKRLEYISEAAFEGLVNLRYLNLGMCNLKDIPNLTALVRLEELELSGNRLDLIRPGSFQGLTSLRKLWLMHAQVATIERNAFDDLKSLEELNLSHNNLMSLPHDLFTPLHRLERVHLNHNPWHCNCDVLWLSWWLKETVPSNTTCCARCHAPAGLKGRYIGELDQSHFTCYAPVIVEPPTDLNVTEGMAAELKCRTGTSMTSVNWLTPNGTLMTHGSYRVRISVLHDGTLNFTNVTVQDTGQYTCMVTNSAGNTTASATLNVSAVDPVAAGGTGSGGGGPGGSGGVGGGSGGYTYFTTVTVETLETQPGEEALQPRGTEKEPPGPTTDGVWGGGRPGDAAGPASSSTTAPAPRSSRPTEKAFTVPITDVTENALKDLDDVMKTTKIIIGCFVAITFMAAVMLVAFYKLRKQHQLHKHHGPTRTVEIINVEDELPAASAVSVAAAAAVASGGGVGGDSHLALPALERDHLNHHHYVAAAFKAHYSSNPSGGGCGGKGPPGLNSIHEPLLFKSGSKENVQETQI [Q9NT99]” the “percentage of EdU-negative” value [1, 3] was 22.3 ± 1.6%, the “percentage of EdU-negative” value [1, 4] was 26.4 ± 1.3% and the “percentage of EdU-negative” value [2, 3] was 5.15 ± 0.48%. The “percentage of EdU-negative” value [2, 4] was 6.95 ± 0.74%.
“MAREMTILGSAVLTLLLAGYLAQQYLPLPTPKVIGIDLGTTYCSVGVFFPGTGKVKVIPDENGHISIPSMVSFTDNDVYVGYESVELADSNPQNTIYDAKRFIGKIFTAEELEAEIGRYPFKVLNKNGMVEFSVTSNETITVSPEYVGSRLLLKLKEMAEAYLGMPVANAVISVPAEFDLKQRNSTIEAANLAGLKILRVINEPTAAAMAYGLHKADVFHVLVIDLGGGTLDVSLLNKQGGMFLTRAMSGNNKLGGQDFNQRLLQYLYKQIYQTYGFVPSRKEEIHRLRQAVEMVKLNLTLHQSAQLSVLLTVEEQDRKEPHSSDTELPKDKLSSADDHRVNSGFGRGLSDKKSGESQVLFETEISRKLFDTLNEDLFQKILVPIQQVLKEGHLEKTEIDEVVLVGGSTRIPRIRQVIQEFFGKDPNTSVDPDLAVVTGVAIQAGIDGGSWPLQVSALEIPNKHLQKTNFN” was tested, and the “percentage of EdU-negative” value [1, 5] was 25 ± 2%, the “percentage of EdU-negative” value ([1]; protein concentration 0.185 µM) was 25.9 ± 0.78% and the “percentage of EdU-negative” value [2, 5] was 4.53 ± 0.31%. For the same sequence, the “percentage of EdU-negative” value ([2]; protein concentration 0.185 µM) was 5.54 ± 0.38%.
In the case of “MARERPPGRGCGVLRRCLLGAVLLFGLRLCAELRRAGPGSPTRSAPPGPAWRPPGPHLPPAPGQPRGASRRQVTYVRSGRRAPPGGGGSGTPEPGCCAPRGRPRRKGPRWHIDLQPWAGSAQSLDEEAWRFLRYISTTQIACNHMNTDSLATDSSPTHKPWSVCLDDRFNLAHQIRNKQCRLYSLGLGSDDTHFEVSMANNGCEVHRFDPSVKSAHILESQHLWYHRLSIDWRDPHPAVAAQKPHSNTRKLGSILNEFGHHKIDVLKADLESAEWKVLENLILEDVLEQIGQLIFEIHLHWPGFEVSGSDSSVVRFWYSLLKELEQKDFRLFHSYKDLSKPQLFLKKDIFNASSCYTLSWVNTRWK [Q5JXM2]”, the “percentage of EdU-negative” value ([1]; protein concentration 0.017 µM) is reported as 26.3 ± 1.3%, the “percentage of EdU-negative” value ([1]; protein concentration 0.17 µM) is reported as 28.6 ± 1.7% and the “percentage of EdU-negative” value ([2]; protein concentration 0.017 µM) is reported as 4.87 ± 0.35%. For the same sequence, the “percentage of EdU-negative” value ([2]; protein concentration 0.17 µM) was 10.9 ± 1.9%.
For “MARFGLPALLCTLAVLSAALLAAELKSKSCSEVRRLYVSKGFNKNDAPLHEINGDHLKICPQGSTCCSQEMEEKYSLQSKDDFKSVVSEQCNHLQAVFASRYKKFDEFFKELLENAEKSLNDMFVKTYGHLYMQNSELFKDLFVELKRYYVVGNVNLEEMLNDFWARLLERMFRLVNSQYHFTDEYLECVSKYTEQLKPFGDVPRKLKLQVTRAFVAARTFAQGLAVAGDVVSKVSVVNPTAQCTHALLKMIYCSHCRGLVTVKPCYNYCSNIMRGCLANQGDLDFEWNNFIDAMLMVAERLEGPFNIESVMDPIDVKISDAIMNMQDNSVQVSQKVFQGCGPPKPLPAGRISRSISESAFSARFRPHHPEERPTTAAGTSLDRLVTDVKEKLKQAKKFWSSLPSNVCNDERMAAGNGNEDDCWNGKGKSRYLFAVTGNGLANQGNNPEVQVDTSKPDILILRQIMALRVMTSKMKNAYNGNDVDFFDISDESSGEGSGSGCEYQQCPSEFDYNATDHAGKSANEKADSAGVRPGAQAYLLTVFCILFLVMQREWR”, the “percentage of EdU-negative” value [1, 6] was 26.5 ± 0.51%, the “percentage of EdU-negative” value [1, 7] was 29.9 ± 0.64% and the “percentage of EdU-negative” value [2, 6] was 4.9 ± 0.24%. For the same sequence, the “percentage of EdU-negative” value [2, 7] was 4.77 ± 0.82%.
In the case of “MARFPKADLAAAGVMLLCHFFTDQFQFADGKPGDQILDWQYGVTQAFPHTEEEVEVDSHAYSHRWKRNLDFLKAVDTNRASVGQDSPEPRSFTDLLLDDGQDNNTQIEEDTDHNYYISRIYGPSDSASRDLWVNIDQMEKDKVKIHGILSNTHRQAARVNLSFDFPFYGHFLREITVATGGFIYTGEVVHRMLTATQYIAPLMANFDPSVSRNSTVRYFDNGTALVVQWDHVHLQDNYNLGSFTFQATLLMDGRIIFGYKEIPVLVTQISSTNHPVKVGLSDAFVVVHRIQQIPNVRRRTIYEYHRVELQMSKITNISAVEMTPLPTCLQFNRCGPCVSSQIGFNCSWCSKLQRCSSGFDRHRQDWVDSGCPEESKEKMCENTEPVETSSRTTTTVGATTTQFRVLTTTRRAVTSQFPTSLPTEDDTKIALHLKDNGASTDDSAAEKKGGTLHAGLIIGILILVLIVATAILVTVYMYHHPTSAASIFFIERRPSRWPAMKFRRGSGHPAYAEVEPVGEKEGFIVSEQC [Q6UX71]”, the “percentage of EdU-negative” value [1, 8] is reported as 27.4 ± 2.7%, the “percentage of EdU-negative” value ([1]; protein concentration 0.225 µM) is reported as 26.561 ± 0.011% and the “percentage of EdU-negative” value [2, 8] is reported as 4.63 ± 0.96%. The “percentage of EdU-negative” value ([2]; protein concentration 0.225 µM) was 7.25 ± 1.4%.
“MARFWVCVAGAGFFLAFLVLHSRFCGSPVLRNFTFAVSWRTEKILYRLDVGWPKHPEYFTGTTFCVAVDSLNGLVYIGQRGDNIPKILVFTEDGYFLRAWNYTVDTPHGIFAASTLYEQSVWITDVGSGFFGHTVKKYSSFGDLVQVLGTPGKKGTSLNPLQFDNPAELYVEDTGDIYIVDGDGGLNNRLIKLSQDFMILWLHGENGTGPAKFNIPHSVTLDSAGRVWVADRGNKRIQVFDKDTGEWLGAWNNCFTEEGPSSVRFTPDGKYLIVAQLNLSRLSVVAAPPVGSIGECSVISTIQLADQVLPHLLEVDRKTGAVYVAEIGAKQVQKYVPLNSYVPSFGS [Q5JS37]” was tested, and the “percentage of EdU-negative” value [1, 9] was 26.8 ± 0.58%, the “percentage of EdU-negative” value ([1]; protein concentration 0.115 µM) was 29.3 ± 1.4% and the “percentage of EdU-negative” value [2, 9] was 4.82 ± 0.15%. The “percentage of EdU-negative” value ([2]; protein concentration 0.115 µM) was 16.1 ± 0.13%.
For “MARGGRGRRLGLALGLLLALVLAPRVLRAKPTVRKERVVRPDSELGERPPEDNQSFQYDHEAFLGKEDSKTFDQLTPDESKERLGKIVDRIDNDGDGFVTTEELKTWIKRVQKRYIFDNVAKVWKDYDRDKDDKISWEEYKQATYGYYLGNPAEFHDSSDHHTFKKMLPRDERRFKAADLNGDLTATREEFTAFLHPEEFEHMKEIVVLETLEDIDKNGDGFVDQDEYIADMFSHEENGPEPDWVLSEREQFNEFRDLNKDGKLDKDEIRHWILPQDYDHAQAEARHLVYESDKNKDEKLTKEEILENWNMFVGSQATNYGEDLTKNHDEL”, the “percentage of EdU-negative” value [1, 8] was 22.7 ± 0.8%, the “percentage of EdU-negative” value ([1]; protein concentration 0.225 µM) was 25.5 ± 0.44% and the “percentage of EdU-negative” value [2, 8] was 4.56 ± 0.49%. The “percentage of EdU-negative” value ([2]; protein concentration 0.225 µM) was 6.14 ± 0.11%.
In the case of “MARGSAVAWAALGPLLWGCALGLQGGMLYPQESPSRECKELDGLWSFRADFSDNRRRGFEEQWYRRPLWESGPTVDMPVPSSFNDISQDWRLRHFVGWVWYEREVILPERWTQDLRTRVVLRIGSAHSYAIVWVNGVDTLEHEGGYLPFEADISNLVQVGPLPSRLRITIAINNTLTPTTLPPGTIQYLTDTSKYPKGYFVQNTYFDFFNYAGLQRSVLLYTTPTTYIDDITVTTSVEQDSGLVNYQISVKGSNLFKLEVRLLDAENKVVANGTGTQGQLKVPGVSLWWPYLMHERPAYLYSLEVQLTAQTSLGPVSDFYTLPVGIRTVAVTKSQFLINGKPFYFHGVNKHEDADIRGKGFDWPLLVKDFNLLRWLGANAFRTSHYPYAEEVMQMCDRYGIVVIDECPGVGLALPQFFNNVSLHHHMQVMEEVVRRDKNHPAVVMWSVANEPASHLESAGYYLKMVIAHTKSLDPSRPVTFVSNSNYAADKGAPYVDVICLNSYYSWYHDYGHLELIQLQLATQFENWYKKYQKPIIQSEYGAETIAGFHQDPPLMFTEEYQKSLLEQYHLGLDQKRRKYVVGELIWNFADFMTEQSPTRVLGNKKGIFTRQRQPKSAAFLLRERYWKIANETRYPHSVAKSQCLENSLFT”, the “percentage of EdU-negative” value [1, 8] is reported as 24.2 ± 0.95%, the “percentage of EdU-negative” value ([1]; protein concentration 0.225 µM) is reported as 23.4 ± 1.8% and the “percentage of EdU-negative” value [2, 8] is reported as 5.26 ± 0.26%. For the same sequence, the “percentage of EdU-negative” value ([2]; protein concentration 0.225 µM) was 5.74 ± 0.95%.
With “MARILLLFLPGLVAVCAVHGIFMDRLASKKLCADDECVYTISLASAQEDYNAPDCRFINVKKGQQIYVYSKLVKENGAGEFWAGSVYGDGQDEMGVVGYFPRNLVKEQRVYQEATKEVPTTDIDFFCE [Q9NRC9]” the “percentage of EdU-negative” value [1, 10] was 24.18 ± 0.24%, the “percentage of EdU-negative” value [1, 11] was 27 ± 3.7% and the “percentage of EdU-negative” value [2, 10] was 5.05 ± 0.39%. The “percentage of EdU-negative” value [2, 11] was 5.74 ± 0.68%.
For “MARLALSPVPSHWMVALLLLLSAEPVPAARSEDRYRNPKGSACSRIWQSPRFIARKRGFTVKMHCYMNSASGNVSWLWKQEMDENPQQLKLEKGRMEESQNESLATLTIQGIRFEDNGIYFCQQKCNNTSEVYQGCGTELRVMGFSTLAQLKQRNTLKDGIIMIQTLLIILFIIVPIFLLLDKDDSKAGMEEDHTYEGLDIDQTATYEDIVTLRTGEVKWSVGEHPGQE”, the “percentage of EdU-negative” value [1, 8] was 25.5 ± 0.14%, the “percentage of EdU-negative” value ([1]; protein concentration 0.225 µM) was 26.8 ± 0.87% and the “percentage of EdU-negative” value [2, 8] was 5.71 ± 0.54%. The “percentage of EdU-negative” value ([2]; protein concentration 0.225 µM) was 8.95 ± 0.22%.
